Reference: article PMC9986708

How the values were obtained:
[1] = molecular target: apolipoprotein E ɛ2 (apoE ɛ2) (human (endogenous in plasma)) (UniProt P02649); experiment: non-reducing SDS-PAGE with western blot
[2] = molecular target: apolipoprotein E ɛ3 (apoE ɛ3) (human (endogenous in plasma)) (UniProt P02649); experiment: non-reducing SDS-PAGE with western blot

stoichiometry N [1]	stoichiometry N [2]	Substance
2		apolipoprotein E ɛ2 (apoE ɛ2) (from UniProt P02649 19-317) (natural protein)
	2	apolipoprotein E ɛ3 (apoE ɛ3) (from UniProt P02649 19-317) (natural protein)
